We go through 2 molecules from paper PMC7736791 (Nucleic Acids Research, 2020).

Where “and” joins values, the source holds several entries; their conditions need not be identical. Equal entries are not always repeated. Where two headings read alike, the source gives them in different places.

In data set [1] the target is AAV2 Rep68* (Rep68 C151S) (adeno-associated virus 2 (AAV2)) (UniProt P03132). Kind of data set: cryo-EM structure.
Data set [2] shares this target. Kind of data set: cryo-EM structure. This is another data set of the same source.
The target is the same in data set [3]. Nature of the data set: cryo-EM structure. This is another data set of the same source.
For data set [4] the target is unchanged. Kind of data set: cryo-EM structure. The source holds these as a separate data set.
Data set [5] shares this target. Kind of data set: cryo-EM structure. This is another data set of the same source.
The data set “cross-linking” deals with the molecule itself. Kind of data set: cross-linking.

As usually defined, the stoichiometry N is a count of units in the complex or per binding partner. In the case of “AAV2 Rep68* (Rep68 C151S) (from UniProt P03132 1-536) (enzyme)”, the stoichiometry N in data set [1] is 6; in data set [2], 7; in data set [3], 7; in data set [4], 8; in data set [5] it was 6 and 7.

B1: AAV2 Rep68 origin binding domain (OBD) (domain or fragment, adeno-associated virus 2 (AAV2))
chain: MPGFYEIVIKVPSDLDGHLPGISDSFVNWVAEKEWELPPDSDMDLNLIEQAPLTVAEKLQRDFLTEWRRVSKAPEALFFVQFEKGESYFHMHVLVETTGVKSMVLGRFLSQIREKLIQRIYRGIEPTLPNWFAVTKTRNGAGGGNKVVDECYIPNYLLPKTQPELQWAWTNMEQYLSACLNLTERKRLVAQHLTHVSQTQEQNKENQNPN
As for B1, the “stoichiometry N” value in “cross-linking” was found to be 8.
